In US7521540B2, “CYR61 compositions and methods” (Munin Corporation, priority 1996, dated 2009):

Assays:
[1] = test system: primary human foreskin fibroblasts; experiment: Cyr61-regulated gene expression (multi-gene blot, Northern); type: cell-based
Procedure: Purified, soluble, recombinant Cyr61 protein was added to cultures of primary human foreskin fibroblasts for 24 hours. From these cells, mRNA was isolated for preparation of probes to hybridize to a multi-gene blot (Clontech Atlas Human Array 1.2 cat no. 7850-1) containing about 650 genes. The levels of expression of these genes in Cyr61-treated cells were compared to that of control cells. […] These findings have been confirmed by Northern blot analysis showing increases or decreases of the mRNAs in question in Cyr61-treated cells. A time course of expression changes has been established. In particular, by 6 hours after its addition, Cyr61 has induced expression of VEGF-A mRNA and the induction is still evident at 12 and 24 hours post-addition. Also at 12 and 24 hours post-addition, Cyr61 has induced expression of VEGF-A polypeptide. With respect to VEGF-C, induction of mRNA is clearly evident 12 hours after addition of Cyr61 and the induction persists at least through 24 hours post-addition. Cyr61 is expected to induce the expression of VEGF-C polypeptide with similar kinetics.

Limb mesenchymal cells = experiment: Chondrogenesis, [35S]-sulfate incorporation in micromass cultures; type: cell-based, mouse
Procedure: Cell proliferation was assessed by the thymidine assay, described above, and by microscopic cell counts. Chondrogenesis was assessed by quantifying the incorporation of [^35S]-sulfate (ICN Biomedicals, Inc.) into sulfated glycosaminoglycans, and by qualitatively determnining the extent of chondrogenesis by cell staining with Alcian Blue. Cultures, described above, were labeled with 2.5 μCi/ml [^35S]-sulfate for 18 hours, washed twice in PBS, fixed with Kahle's fixative (Pepper et al., J. Cell Sci. 109:73-83 [1995]) and stained for 18 hours in 0.5% Alcian Blue, pH 1.0. The extent of chondrogenesis is correlated with the intensity of Alcian Blue staining. San Antonio et at., Dev. Biol. 115:313-324 (1986).
Chondrogenic differentiation was quantitated by incorporation of […] (ICN) into sulfated glycosaminoglycans and assessed qualitatively by Alcian Blue staining. Cultures were radiolabeled with 2.5 μCi/ml [^35S]-sulfate for 18 hr, fixed with Kahle's fixative and stained with 0.5% Alcian Blue, pH 1.0 (Lev et al., 1964). The extent of chondrogenesis is correlated with the intensity of Alcian Blue staining (San Antonio et al., 1986). [^35S]-Sulfate incorporation in the fixed cell layer was quanititated by liquid scintillation counting.
As shown above in Example 11, anti-Cyr61 antibodies can neutlralize both the cell adhesion and DNA-synthesis enhancement activities of Cyr61. Anti-Cyr61 antibodies were added to the mesenchymal cell culture media or mixed the cell suspension prior to plating. […] These observations were correlated with decreased Alcian Blue staining.

macrophages = experiment: Macrophage binding, antibody inhibition studies; type: cell-based
Source text: It is also expected that Cyr61 will promote the migration of macrophages, thus serving a role in attracting and retaining macrophages at the site of a wound. Consequently, Cyr61 is expected to play a role in the inflammatory response of mammals, and modulation of Cyr61 activity is expected to influence the inflammatory response.

B1: Cyr61: Cysteine-rich ECM signaling protein; murine sequence SEQ ID NO:2, recombinant from Baculovirus-infected Sf9 cells (protein, listed as Mus musculus)
chain: MSSSTFRTLAVAVTLLHLTRLALSTCPAACHCPLEAPKCAPGVGLVRDGCGCCKVCAKQLNEDCSKTQPCDHTKGLECNFGASSTALKGICRAQSEGRPCEYNSRIYQNGESFQPNCKHQCTCIDGAVGCIPLCPQELSLPNLGCPNPRLVKVSGQCCEEWVCDEDSIKDSLDDQDDLLGLDASEVELTRNNELIAIGKGSSLKRLPVFGTEPRVLFNPLHAHGQKCIVQTTSWSQCSKSCGTGISTRVTNDNPECRLVKETRICEVRPCGQPVYSSLKKGKKCSKTKKSPEPVRFTYAGCSSVKKYRPKYCGSCVDGRCCTPLQTRTVKMRFRCEDGEMFSKNVMMIQSCKCNYNCPHPNEASFRLYSLFNDIHKFRD
- time after addition at which VEGF-A mRNA is induced [1]: ≤ 6 h
- time after addition at which VEGF-C mRNA induction is clearly evident [1]: 12 h
- expression of angiogenic molecules ([1]; soluble Cyr61, 24 hours): induction of the angiogenic molecules VEGF1 and VEGF3
- expression of inflammation-related cytokines ([1]; soluble Cyr61, 24 hours): induction of the inflammation-related cytokines IL-1 and IL-6
- expression of matrix degrading enzymes ([1]; soluble Cyr61, 24 hours): upregulation of matrix degrading enzymes including MMP1, MMP3, and uPA
- expression of matrix protein genes ([1]; soluble Cyr61, 24 hours): downregulation of matrix protein genes such as the type I collagen chain gene
- increase in [35S]-sulfate incorporation (Limb mesenchymal cells; 0.3 μg/ml): 1.5 fold
- increase in [35S]-sulfate incorporation (Limb mesenchymal cells; 5 μg/ml (120 nM)): 3.5 fold
- cartilage formation (Limb mesenchymal cells; 10 μg/ml): formed a more massive mound of cartilage
- increase in normalized sulfate incorporation over control (Limb mesenchymal cells; sulfate/cell number ratio): approximately 2 fold
- binding to macrophages (macrophages): binds to macrophages via yet another integrin, the αMβ2 integrin
